Data on 62 molecules can be found in patent publication US11352401.

Assay [1] has as its target T1, HLA-B*07 (human).
T1 construct: MHC monomer made peptide-receptive by UV cleavage of a UV-sensitive ligand; also called peptide-receptive MHC class I monomer
The assay is described as follows: UV peptide-exchange ELISA; ++++ = yield >75%. For orientation: In an ELISA, binding on a coated surface is turned into a signal by an enzyme label.

Assay [2] deals with T2, HLA-A*01 (human).
T2 construct: MHC monomer made peptide-receptive by UV cleavage of a UV-sensitive ligand; also called peptide-receptive MHC class I monomer
The assay is described as follows: UV peptide-exchange ELISA; +++ = yield >50%. The text has this: Candidate peptides for T cell based therapies according to the present invention were further tested for their MHC binding capacity (affinity). The individual peptide-MHC complexes were produced by UV-ligand exchange, where a UV-sensitive peptide is cleaved upon UV-irradiation, and exchanged with the peptide of interest as analyzed. Only peptide candidates that can effectively bind and stabilize the peptide-receptive MHC molecules prevent dissociation of the MHC complexes. To determine the yield of the exchange reaction, an ELISA was performed based on the detection of the light chain (β2m) of stabilized MHC complexes. The assay was performed as generally described in Rodenko et al. (Rodenko et al., 2006).
96 well MAXISorp plates (NUNC) were coated over night with 2 ug/ml streptavidin in PBS at room temperature, washed 4× and blocked for 1 h at 37° C. in 2% BSA containing blocking buffer. […] Peptide-MHC monomers of the UV-exchange reaction were diluted 100-fold in blocking buffer. Samples were incubated for 1 h at 37° C., washed four times, incubated with 2 ug/ml HRP conjugated anti-β2m for 1h at 37° C., washed again and detected with TMB solution that is stopped with […]. Absorption was measured at 450 nm.

For the molecule SPQRLRGLL [SPQRLRGLL (SEQ ID NO: 291)], the peptide exchange yield in assay [1] is greater than 75%.

TLDAGKFQIY [TLDAGKFQIY (SEQ ID NO: 439)]: the peptide exchange yield in assay [2] was in the range of 50 to 75%.

On to FPSFLTNSL [FPSFLTNSL (SEQ ID NO: 285)], for which the peptide exchange yield in assay [1] was greater than 75%.

With RPPAAGLRGISL [RPPAAGLRGISL (SEQ ID NO: 259)], in assay [1], the peptide exchange yield was greater than 75%.

In assay [1], RPHKPGLYL [RPHKPGLYL (SEQ ID NO: 475)] yielded a peptide exchange yield greater than 75%.

For MPLPWSLALPL [MPLPWSLALPL (SEQ ID NO: 272)], in assay [1], the peptide exchange yield was greater than 75%.

As for ESDVGVVVY [ESDVGVVVY (SEQ ID NO: 141)], the peptide exchange yield in assay [2] fell in the range of 50 to 75%.

With TTDTVIRSY [TTDTVIRSY (SEQ ID NO: 444)], the peptide exchange yield in assay [2] is 50 to 75%.

In turn, KPRPDVTNEL [KPRPDVTNEL (SEQ ID NO: 471)] showed a peptide exchange yield in assay [1] greater than 75%.

Turning to YLDIPNPRY [YLDIPNPRY (SEQ ID NO: 448)], the peptide exchange yield in assay [2] was 50 to 75%.

As to NPFPHLITL [NPFPHLITL (SEQ ID NO: 254)], the peptide exchange yield in assay [1] was greater than 75%.

As for HPAPYGDLL [HPAPYGDLL (SEQ ID NO: 263)], the peptide exchange yield in assay [1] is greater than 75%.

In assay [2], NLDQATRVAY [NLDQATRVAY (SEQ ID NO: 426)] showed a peptide exchange yield of 50 to 75%.

VPTLRSEL [VPTLRSEL (SEQ ID NO: 286)] registered a peptide exchange yield in assay [1] greater than 75%.

As to VPRSSGQTV [VPRSSGQTV (SEQ ID NO: 251)], the peptide exchange yield in assay [1] was greater than 75%.

As for MPLLENLYL [MPLLENLYL (SEQ ID NO: 255)], in assay [1], the peptide exchange yield was greater than 75%.

In the case of SPNSYFRVL [SPNSYFRVL (SEQ ID NO: 470)], in assay [1], the peptide exchange yield is greater than 75%.

Turning to MPMAGDMNGL [MPMAGDMNGL (SEQ ID NO: 460)], the peptide exchange yield in assay [1] is greater than 75%.

On to KPFSSFTSM [KPFSSFTSM (SEQ ID NO: 467)], for which, in assay [1], the peptide exchange yield is greater than 75%.

For the molecule VPENHSVAL [VPENHSVAL (SEQ ID NO: 289)], the peptide exchange yield in assay [1] is greater than 75%.

For the molecule RPHSLSSEL [RPHSLSSEL (SEQ ID NO: 283)], in assay [1], the peptide exchange yield was greater than 75%.

Molecule SPMYGQAGL [SPMYGQAGL (SEQ ID NO: 468)] registered a peptide exchange yield in assay [1] greater than 75%.

As to YPRPGTPAA [YPRPGTPAA (SEQ ID NO: 464)], the peptide exchange yield in assay [1] was greater than 75%.

Take VPRPIFSQL [VPRPIFSQL (SEQ ID NO: 465)]: the peptide exchange yield in assay [1] is greater than 75%.

FTEQWTDGY [FTEQWTDGY (SEQ ID NO: 408)] returned a peptide exchange yield in assay [2] of 50 to 75%.

Regarding RPRSALPRLLLP [RPRSALPRLLLP (SEQ ID NO: 293)], in assay [1], the peptide exchange yield was greater than 75%.

VPSSRILQL [VPSSRILQL (SEQ ID NO: 249)]: in assay [1], the peptide exchange yield is greater than 75%.

Turning to SPRQPPRLV [SPRQPPRLV (SEQ ID NO: 265)], the peptide exchange yield in assay [1] was greater than 75%.

RPFHTRATV [RPFHTRATV (SEQ ID NO: 462)] had a peptide exchange yield in assay [1] greater than 75%.

STDNFNCKY [STDNFNCKY (SEQ ID NO: 438)]: the peptide exchange yield in assay [2] lay within 50 to 75%.

As for LPRGPLASL [LPRGPLASL (SEQ ID NO: 258)], the peptide exchange yield in assay [1] is greater than 75%.

As to VLDQGKITEY [VLDQGKITEY (SEQ ID NO: 445)], the peptide exchange yield in assay [2] lay within 50 to 75%.

In assay [1], KPEGTRIAV [KPEGTRIAV (SEQ ID NO: 295)] yielded a peptide exchange yield greater than 75%.

FIDYPKKEDY [FIDYPKKEDY (SEQ ID NO: 143)] yielded a peptide exchange yield in assay [2] of 50 to 75%.

SPDIRNTTV [SPDIRNTTV (SEQ ID NO: 252)] had a peptide exchange yield in assay [1] greater than 75%.

For the molecule LPRALLSSL [LPRALLSSL (SEQ ID NO: 473)], the peptide exchange yield in assay [1] is greater than 75%.

In turn, ECDMAFHIY [ECDMAFHIY (SEQ ID NO: 139)] came in with a peptide exchange yield in assay [2] of 50 to 75%.

In assay [2], LLDPRSYHTY [LLDPRSYHTY (SEQ ID NO: 415)] had a peptide exchange yield of 50 to 75%.

In assay [2], KTDESLTKY [KTDESLTKY (SEQ ID NO: 414)] showed a peptide exchange yield of 50 to 75%.

Molecule EVAEPSVLFDLY [EVAEPSVLFDLY (SEQ ID NO: 142)] yielded a peptide exchange yield in assay [2] of 50 to 75%.

Regarding SPRVPSIEL [SPRVPSIEL (SEQ ID NO: 256)], the peptide exchange yield in assay [1] was greater than 75%.

Regarding VVDEDHELIY [VVDEDHELIY (SEQ ID NO: 447)], the peptide exchange yield in assay [2] fell in the range of 50 to 75%.

In assay [2], ESDREELNY [ESDREELNY (SEQ ID NO: 140)] displayed a peptide exchange yield of 50 to 75%.

In turn, FLDSQNLSAY [FLDSQNLSAY (SEQ ID NO: 144)] gave a peptide exchange yield in assay [2] of 50 to 75%.

As to IPNWARQDL [IPNWARQDL (SEQ ID NO: 248)], in assay [1], the peptide exchange yield is greater than 75%.

For LPRIPFADV [LPRIPFADV (SEQ ID NO: 257)], in assay [1], the peptide exchange yield was greater than 75%.

In assay [2], FVDKPVAY [FVDKPVAY (SEQ ID NO: 145)] showed a peptide exchange yield of 50 to 75%.

For SPRDFLSGL [SPRDFLSGL (SEQ ID NO: 250)], in assay [1], the peptide exchange yield was greater than 75%.

As to TLDENPGVRY [TLDENPGVRY (SEQ ID NO: 440)], in assay [2], the peptide exchange yield is 50 to 75%.

Turning to LPRLLPAL [LPRLLPAL (SEQ ID NO: 474)], the peptide exchange yield in assay [1] was greater than 75%.

For the molecule TPKAGPTL [TPKAGPTL (SEQ ID NO: 463)], in assay [1], the peptide exchange yield is greater than 75%.

NLDEEKQLLY [NLDEEKQLLY (SEQ ID NO: 424)] returned a peptide exchange yield in assay [2] of 50 to 75%.

In the case of GPTPNTGAAL [GPTPNTGAAL (SEQ ID NO: 294)], the peptide exchange yield in assay [1] was greater than 75%.

In turn, RPRAPVTPA [RPRAPVTPA (SEQ ID NO: 281)] displayed a peptide exchange yield in assay [1] greater than 75%.

Regarding APGPRFLVT [APGPRFLVT (SEQ ID NO: 270)], the peptide exchange yield in assay [1] is greater than 75%.

APRAPRLML [APRAPRLML (SEQ ID NO: 269)] had a peptide exchange yield in assay [1] greater than 75%.

Molecule NVDPVQHTY [NVDPVQHTY (SEQ ID NO: 432)] yielded a peptide exchange yield in assay [2] of 50 to 75%.

On to LSDPSGPKSY [LSDPSGPKSY (SEQ ID NO: 418)], for which the peptide exchange yield in assay [2] lay in the range of 50 to 75%.

With APYRPPDISL [APYRPPDISL (SEQ ID NO: 290)], the peptide exchange yield in assay [1] is greater than 75%.

In assay [1], APYKSVTSL [APYKSVTSL (SEQ ID NO: 466)] returned a peptide exchange yield greater than 75%.

Consider YPLFRGINL [YPLFRGINL (SEQ ID NO: 268)], for which the peptide exchange yield in assay [1] is greater than 75%.

On to NPRATDAQL [NPRATDAQL (SEQ ID NO: 472)], for which the peptide exchange yield in assay [1] is greater than 75%.
